# Results: patent publication US20220332804A1 (CSL INNOVATION, published 2022)
# Numbering of substitutions follows the chain as printed.
# T1: human C2 G707A (human, UniProt P06681 21-752)
# T1 sequence: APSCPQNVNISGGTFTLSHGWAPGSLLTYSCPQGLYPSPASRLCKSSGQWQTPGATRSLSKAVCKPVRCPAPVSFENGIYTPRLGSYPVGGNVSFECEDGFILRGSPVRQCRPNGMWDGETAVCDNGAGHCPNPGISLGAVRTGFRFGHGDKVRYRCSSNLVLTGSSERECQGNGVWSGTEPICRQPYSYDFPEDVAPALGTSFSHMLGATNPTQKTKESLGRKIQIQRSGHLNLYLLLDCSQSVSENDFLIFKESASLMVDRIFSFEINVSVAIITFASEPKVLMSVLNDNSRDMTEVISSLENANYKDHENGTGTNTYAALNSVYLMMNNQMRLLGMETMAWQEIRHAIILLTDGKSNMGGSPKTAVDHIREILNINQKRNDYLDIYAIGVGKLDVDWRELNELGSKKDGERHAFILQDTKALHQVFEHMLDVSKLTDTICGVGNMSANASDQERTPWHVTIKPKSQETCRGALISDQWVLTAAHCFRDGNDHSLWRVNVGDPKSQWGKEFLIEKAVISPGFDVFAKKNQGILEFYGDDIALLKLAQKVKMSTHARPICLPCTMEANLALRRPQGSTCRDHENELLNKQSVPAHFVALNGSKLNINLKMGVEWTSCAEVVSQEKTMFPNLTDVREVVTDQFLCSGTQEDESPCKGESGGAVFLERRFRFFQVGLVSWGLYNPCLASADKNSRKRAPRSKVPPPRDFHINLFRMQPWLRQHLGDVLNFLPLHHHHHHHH
# T2: human C2 S708A (human, UniProt P06681 21-752)
# T2 sequence: T1 sequence with A687G, S688A
# T3: human C2 E645A (human, UniProt P06681 21-752)
# T3 sequence: T1 sequence with E625A, A687G
# T4: human C2 K676S (human, UniProt P06681 21-752)
# T4 sequence: T1 sequence with K656S, A687G
# B1: RF16-226 (antibody, human IgG4 S228P, lambda)
# heavy: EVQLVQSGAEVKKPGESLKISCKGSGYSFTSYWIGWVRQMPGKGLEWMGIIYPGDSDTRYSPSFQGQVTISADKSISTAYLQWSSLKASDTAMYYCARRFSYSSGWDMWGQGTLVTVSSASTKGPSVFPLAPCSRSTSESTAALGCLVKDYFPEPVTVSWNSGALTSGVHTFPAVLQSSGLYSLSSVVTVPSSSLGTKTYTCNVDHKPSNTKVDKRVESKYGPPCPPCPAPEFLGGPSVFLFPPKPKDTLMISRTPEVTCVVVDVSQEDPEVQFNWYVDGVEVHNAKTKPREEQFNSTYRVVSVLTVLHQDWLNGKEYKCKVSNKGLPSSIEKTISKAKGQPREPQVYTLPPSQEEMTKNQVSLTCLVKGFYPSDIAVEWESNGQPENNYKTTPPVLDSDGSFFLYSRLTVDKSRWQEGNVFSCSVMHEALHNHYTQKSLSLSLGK
# light: SYELTQPPSVSVSPGQTARITCSGDALTSKYVAWYQQKSGLAPLLVIYEDTRRPSGIPAKFSGSSSGSVATLTISGAHGDDEADYYCYSTDASGHQRVFGGGTKLTVLSQPKAAPSVTLFPPSSEELQANKATLVCLISDFYPGAVTVAWKADGSPVKAGVETTKPSKQSNNKYAASSYLSLTPEQWKSHRSYSCQVTHEGSTVEKTVAPTECS
# notes: pH-dependent anti-C2 antibody from a phage display library; also called WT
# Tests used:
# Assay in all cases: SPR, antibody captured, C2 as analyte;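 further: biacore SPR at 37 °C, anti-C2 mAbs captured via goat anti-human IgG on CM5 chips, double-referenced sensorgrams fit to a 1:1 kinetic or steady-state model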
# human C2 G707A = target: T1, human C2 G707A
# human C2 S708A = target: T2, human C2 S708A
# human C2 E645A = target: T3, human C2 E645A
# human C2 K676S = target: T4, human C2 K676S
binder,measurement,setting,value
B1,Kd,human C2 G707A,0.0194 µM
same,Kd,human C2 S708A,0.0211 µM
same,Kd,human C2 E645A,0.014 µM
same,Kd,human C2 K676S,0.0163 µM
